The text below walks through data of publication PMC7117682 (2020).

In general, EC50 refers to the concentration giving half of the maximal effect. Lower therefore signals an effect from little substance.

This assay addresses CD47 naturally expressed on CD47(+) Jurkat T lymphoma cells (human (endogenous in Jurkat), UniProt Q08722 19-323). As to the kind of experiment: FACS. (In general: A flow cytometer gives signals particle by particle.)

Chain of CD47 naturally expressed on CD47(+) Jurkat T lymphoma cells (Q08722 19-323): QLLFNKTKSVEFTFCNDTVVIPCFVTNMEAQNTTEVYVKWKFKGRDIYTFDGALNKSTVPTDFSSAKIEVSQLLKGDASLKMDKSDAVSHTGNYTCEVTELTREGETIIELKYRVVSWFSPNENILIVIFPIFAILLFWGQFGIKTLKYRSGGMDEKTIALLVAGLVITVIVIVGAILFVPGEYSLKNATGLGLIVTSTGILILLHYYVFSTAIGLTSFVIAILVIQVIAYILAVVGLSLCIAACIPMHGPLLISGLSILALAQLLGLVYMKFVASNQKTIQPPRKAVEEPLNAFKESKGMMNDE

B1: SIRPα-Avi-biotin (soluble, biotin-conjugated SIRPα d1 construct; allelic variant not stated for the experiment) (domain or fragment)
chain: EELQVIQPDKSVLVAAGETATLRCTATSLIPVGPIQWFRGAGPGRELIYNQKEGHFPRVTTVSDLTKRNNMDFSIRIGNITPADAGTYYCVKFRKGSPDDVEFKSG
modifications: biotin (biotin-conjugated, SIRPα-Avi-biotin)
With B1, the EC50 turned out to be 2000 nM.
